In US20260028391A1:

Legend:
[1] = biological target: fusion glycoprotein of the RSV used in the neutralization assay of Example 1 (respiratory syncytial virus (strain not stated)); test: cell-based or functional assay
[2] = biological target: fusion glycoprotein of the MPV D280 used in the neutralization assay of Example 3 (metapneumovirus (strain not stated)); test: cell-based or functional assay
[3] = biological target: MPV fusion glycoprotein with the D280N mutation (MPV-F N280) (metapneumovirus); test: SPR; F protein loaded on streptavidin sensors, mAb in solution
[4] = biological target: MPV fusion glycoprotein without the D280N mutation (MPV-F D280) (metapneumovirus); test: as above
[5] = biological target: RSV fusion glycoprotein (RSV-F) of the RSV used in the neutralization of Table 33 (respiratory syncytial virus, strain not stated); test: cell-based or functional assay
[6] = biological target: fusion glycoprotein (F) of the MPV used in the neutralization of Table 34 (metapneumovirus); test: cell-based or functional assay
[7] = biological target: RSV fusion glycoprotein (RSV-F) (respiratory syncytial virus (strain not stated)); test: SPR; sensors loaded with RSV-F, mAb in solution (Experiment 2)
[8] = biological target: DS-Cav1 RSV F (respiratory syncytial virus); test: ELISA on DS-Cav1 RSV F

| Binder | RSV Neutralization - IC50 [1] [µg/mL] | MPV D280 Neutralization - IC50 [2] [µg/mL] | Kd [3] [pM] | Kd [4] [pM] | IC50 (ng/mL) in neutralization against RSV [5] [ng/mL] | IC50 (ng/mL) in neutralization against MPV [6] [ng/mL] | Kd [7] [pM] | EC50 [8] [µg/mL] |
| --- | --- | --- | --- | --- | --- | --- | --- | --- |
| MPK126 (antibody, V domains shown) VH: EVQLVESGGGLVKPGGSMRLSCAASGVTLSGYYMIWIRQAPGKGLEWISDISASSTYTDYADSVKGRFTVSRDNSQNTVYLQMNSLRAEDTAVYYCATEQTPSPGPFDLWGQGTLVTVSS VL: QSVLTQPPSVSGAPGQRVTISCTGSSSNVGAGYDVHWYQQFPGTSPKLLIYRNTNRPSGVPDRFSGFKSGTSASLAITGLEAEDEADYYCQSYDRSLSGWVFGAGTKLTVL | 0.0264 | 0.0236 | 210 | 1 | – | – | – | – |
| MPK151 (antibody, V domains shown) VH: EVQLVESGGGLVKPGGSLRLSCAASGLTISGYYMIWIRQAPGKGLEWISDISASSTYTDYAESVKGRFSISRDNGQNTVYLQMNSLRAEDTAVYYCATEQTPSPGPFDLWGQGTLVTVSS VL: QSVLTQPPSVSGAPGQKITISCTGGSSNFGAGYDVHWYQQFPGTSPKLLIYRNTFRPSGVPDRFSGSKSGTSASLAITGLQAEDEADYYCQSYDRSLSGWVFGGGTKLTVL | 0.0375 | 0.0178 | 270 | 1 | – | – | – | – |
| MPK127 (antibody, V domains shown) VH: QVQLVISGGGLVKPGGSLRLSCAASGFRIDSFSLNWVRQAPGKGLEWLASVSASSSYIDYRDSVAGRFTISRDNAQNSLYLQMDTLRAEDTAVYYCARTNGYETGSFDVWGQGTLVTVAS VL: QSVLTQPPSVSGAPGQRVTISCTGSSSNIGAGYDVHWYQQLPGKAPKLLINANNNRPSGVPDRFSGSNSGTSASLAITGLQAEDEADYYCQSYDKTLSGYVFGLGTTVTVL | 0.0787 | 0.0243 | 1 | 1 | – | – | – | – |
| MPK152 (antibody, V domains shown) VH: EVQLVESGGGLVKPGGSLRLSCAASGLTISGYYMIWIRQAPGKGLEWISYISGSSSYTNYADSVKGRFTISRDNGQNTLFLQMDSLRVEDTAVYFCATEETPSPGPFGLWGQGTLVTVSS VL: QSVVTQPPSVSGAPGQRVTISCTGTSSNIGAGYDVHWYQQFPGTSPKLLIFRNTNRPSGVPDRFSGSTSGSSASLAITGLQTEDEADYYCQSYDRSLDGWVFGGGTELTVL | 0.0308 | 0.0152 | 69 | 1 | – | – | – | – |
| MPK129 (antibody, V domains shown) VH: EVQLVESGGGLVKPGGSLRLSCEASGFSLSGYYMIWIRQAPGKGLEWISSISGSGNYIDYADSVKGRFTISRDNGHNTLYLQMNSLRVEDTAVYYCATEQTPSPGPFDHWGQGTLVTVSS VL: QTVVTQPPSVSGAPGQRVTISCTGTSSNIGTGYDVHWYQQFPGTSPKLLIYRNTNRPSGVPDRFSGSKSGSSASLAIAGLQAEDEADYYCQSYDRSVSGWVFGGGTKLTVL | 0.0149 | 0.0081 | 1900 | 1 | – | – | – | – |
| MPK153 (antibody, V domains shown) VH: EVHLVESGGGLVKPGGSLRLSCAASGFTFTGYFMIWIRQAPGKGLEWISYISSSSNYINYADSVKGRFTISRDNGQNTLYLQMNSLRPDDTAVYYCATEQVPSPGPFDLWGQGTLVTVSS VL: QSVLTQPPSVSGAPGQRVIISCTGTSSNIGAGYDVHWYQQFPGASPKLLIFRNTDRPSGVPDRFSGSKSGSSASLAIAGLQAEDEADYYCQSYDRSLDGWVFGGGTKVTVL | 0.0296 | 0.0199 | 5500 | 1 | – | – | – | – |
| MPK155 (antibody, V domains shown) VH: EVQLVESGGGLVKPGGSLRLSCEASGISLSGYYMIWIRQAPGKGLEWISSISSSSNYIDYADSVRGRFTISRHNGQNTLYLQMNSLRVEDTAVYFCATEQTPSPGPFDLWGQGILVTVSS VL: QSVLTQPPSVSGAPGQRVTIFCTGTSSNLGAGYDVHWYQQFPGTSPKLLIYRYTNRPSGVPDRFSGSKSGSSASLAIAGLQAEDEADYYCQSYDRSVSGWVFGGGTKLTVL | 0.0265 | 0.0141 | 2600 | 1 | – | – | – | – |
| MPK132-v1 (antibody, V domains shown) VH: EVQLVESGGGLVKPGGSLRLSCEASGISLSGYYMIWIRQAPGKGLEWISSISSSSNYIDYADSVKGRFTISRHNGQNTLYLQMNSLRVEDTAVYFCATEQTPSPGPFELWGQGILVTVSS VL: QSVVTQPPSVSGAPGQRVTIFCTGTSSNIGTGYDVHWYQQFPGTSPKLLIYRNTNRPSGVPDRFSGSKSGSSASLAIAGLQAEDEADYYCQSYDRSVSGWVFGGGTKLTVL | 0.018 | 0.0101 | 4300 | 1 | – | – | – | – |
| MPK157 (antibody, V domains shown) VH: EVQLVESGGGLVKPGGSLRLSCSASGFTLSGYNMNWVRQAPGKGLEWISYISASSSYINYADSVKGRFTISRDNGRSSLYLQMNSLRAEDTAVYFCTTQAELPGWFDPWGQGTLVTVSS VL: QSVLTQPPSMSGAPGQRVTISCTGSSSNIGAGYDVNWYRQLPGTAPQLLIYRNTNRPSGVPDRFSGSNSGTSASLAITGLQADDEAHYYCQSYDRSLSGWVFGGGTKLTVL | 0.0241 | 0.0079 | 1200 | 1 | – | – | – | – |
| RSD5-FR-GL-rIgG1 (antibody, V domains shown) VH: QVQLVESGGGVVQPGRSLRLSCAASGFAFNNFAMHWVRQAPGKGLEWVAVVSYDGTSPYYADSVKGRFTISRDNSKNTLYLQMNSLRAEDTAVYYCARGLGSGSYSWIGYFYAMDVWGQGTTVTVSS VL: QSALTQPASVSGSPGQSITISCTGTSSDVGGYVYVSWYQQHPGKAPKLMIYDVSNRPSGVSNRFSGSKSGNTASLTISGLQAEDEADYYCISYTDRNTVVFGGGTKLTVL | 0.00541 | – | – | – | 1.2 | > 2000 | – | – |
| MPK171-v1 (antibody, V domains shown) VH: QVQLVQSGAEVKKPGESLKISCKGSGYSFINYWIGWVRQMPGKGLEWMGIIYPFDSDTKYSPSFQGHVTISADKSINTAYVQWSSLKASDTAMYYCARFTFGIAVVTDDVSGEGHAFDIWGQGTMVTVSS VL: QSVLTQPPSVSGAPGQRVTISCAGSSSNIGAGFDVHWYQQVPGTAPKLLIYNTDNRASGVPDRFSASKSGTSASLAITGLQAEDEADYYCQSYDNSLSGVFGGGTKLTVL | 0.0043 | – | – | – | – | – | 1200 | – |
| MPK177 (antibody, V domains shown) VH: EVQLVQSGAEVKKPGESLKISCQVSGYSFMNYWVGWVRQMPGKGLEWMGIIYPFDSDTIYSPSFQGHVTISADTSITTAYLHWSSLKASDTATYYCARFTFGIAVVADGLSGDGEAFDIWGQGTVVTVSS VL: DIVMTQTPATLSVSPGERATLSCRASQSVAGKLAWYQQRPGQTPRLLIYGASTRATGVPARFSGSGSETEFTLTISSLQSEDFAVYYCQQYSSWPHAFGQGTRLDIK | 0.001 | – | – | – | – | – | 1 | – |
| MPK167 (antibody, V domains shown) VH: EVQLVQSGPEVKKPGESLKISCKASGYSFINYWIGWVRQMPGKGLEWMGIIYPFDSDTQYSPSFQGHVTISADKSINTAYVQWSSLKASDTAMYYCARFTFGIAVVAGDVSGEGHAFDIWGQGTMVTVSS VL: EIVMMQSPATLSVSPGERATLSCRASQSVAGNLAWYQQSPGQAPRLLIYGASTRATGVPARFSGSGSETEFTLTISSLQSEDFAVYFCQQYSNWPHAFGQGTRLDIK | 0.001 | – | – | – | – | – | 11 | – |
| MPK195 (antibody, V domains shown) VH: EVQLVQSGAAVKKPGESLKISCRGSGYSFINYWIGWVRQMPGKGLEWMGVIYPFDSDTQYSPSFQGHVTISADKSINTAYLQWDSLKAADTAIYYCARFTFGIALSTADVYGEGQAFDIWGPGTMVTVSS VL: EIVLTQSPATLSVSPGERATLSCRASQSVAGKIAWYQQRPGQAPRLLIYGASTRATGVPARFSGSGSETEFTLTISSLQSEDFAVYYCQQYSNWPQAFGPGTRLDMK | 0.0011 | – | – | – | – | – | 1 | – |
| MPK191 (antibody, V domains shown) VH: EVQLVQSGAEVKKPGESLKISCKGSGYSFINYWIGWVRQMPGKGLEWMGIIYPFDSDTKYSPSFQGHVTISADKSINTAYVQWSGLKASDTAMYYCARFTFGIAVVAGDVTGEGHAFDVWGQGTMVTVSS VL: EIVMTQSPATLSVSPGDRATLSCRASQSVAGNLAWYQQRPGQTPRLLIYGASTRASGVPARFSGSGSETEFTLTISSLQSEDFAVYYCQQYDNWPHAFGQGTRLDIK | 0.0012 | – | – | – | – | – | 29 | – |
| MPK169-v2 (antibody, V domains shown) VH: EVQLVQSGAEVKKPGESLTISCQTSGYSFINYWIGWVRQMPGKGLEWMGVIYPFDSDTEYSPSFRGHVTISADKSINTAYLQWNSLGASDTAMYYCARFTFGIALVSGDVNGEGHAFDVWGRGTLVTVSS VL: EIVLTQSPPTLSVSPGQRATLSCRASQSVADKLAWYQQRPGQAPRLLIYGASSRATGVPARFSGSGSETEFTLTITSLQSEDFALYYCHQYNNWPHAFGQGTRLVIK | – | – | – | – | – | – | 620 | – |
| MPK182 (antibody, V domains shown) VH: EVQLVESGGGLVKPGGSLRLSCTASLSTFSDYYMTWIRQAPGKGLEWLGYISGSQSQTNLADSVKGRFTISRDNAKKSLYLQMNSLRVEDTATYFCARVHLWFGDLNALDLWGQGTKVTVSS VL: QSVLTQPPSVSGAPGQRVTISCAGSSSNIGAGFDVHWYQQVPGTAPKLLIYNTDNRASGVPDRFSASKSGTSAFLAITGLQAEDEADYYCQSYDNSLSGVFGGGTKLTVL | – | – | – | – | – | – | 2800 | – |
| MPH12 VH-FRGL / MPH12 VL-FRGL-D25E (antibody, V domains shown) VH: QVQLVESGGGLVKPGGSLRLSCAASGFTFSGFYMKWIRQAPGKGLEWVSSISASGSYTNYADSVEGRFTISRDNAKNSLYLQMNSLRAEDTAVYYCARGDSYCGASACHGEFFHKWGQGTLVTVSS VL: QSVLTQPPSVSGAPGQRVTISCTGSESNIGADFDVHWYQQLPGTAPKLLIYGNINRPSGVPDRFSGSKSGTSASLAITGLQAEDEADYYCQSYDRSLHYVFGTGTKVTVL | – | – | – | – | – | – | – | 0.0472 |
